Positions of bridges follow the written chain, without caps; N, C: chain ends. Residues, ends and D or L forms follow the SMILES beside them. *: point of attachment. X4 = C[C@@H]1C[C@H]2[C@@H]3CCC4=CC(=O)C=C[C@]4(C)[C@@]3(F)[C@@H](O)C[C@]2(C)[C@@]1(O)C(=O)COC(=O)[C@H]1CC[C@H](C(=O)*)CC1; X3 = C[C@@H]1C[C@H]2[C@@H]3CCC4=CC(=O)C=C[C@]4(C)[C@@]3(F)[C@@H](O)C[C@]2(C)[C@@]1(O)C(=O)COC(=O)CCCC(=O)*
Tests used:
[1] = Hydrolysis assay of peptide-drug conjugates in rat plasma (free drug by LC/MS); type: in vitro ADME; conditions: 37° C.
Experimental: Peptide-drug conjugate peptide(SEQ ID NO: 105)-DMA-dCIC was incubated in rat plasma at 37° C. Samples were removed at regular intervals, processed by solvent extraction, and analyzed by LC/MS to quantitate free dCIC. 11 time-points were measured between 5 min and 56 hours with 3 replicates per time point. The assay was repeated two times.
(§1) In order to determine hydrolysis rates, conjugates can be diluted in PBS, rat plasma, or human plasma and incubated at 37 degrees. Samples can be taken at designated time-points (e.g., 1, 2, 3, 5, 10, 15, 20, 25, 30, 45, 60, or 90 minutes and/or hours after administration). Internal standards such as triamcinolone acetonide (TAA) can be added as an internal standard, and then active agent/TAA can be extracted using acetonitrile, for example. The samples can be dried down, reconstituted, and analyzed by LC/MS. Data can be normalized using Dex AUC/TAA AUC. Percent hydrolysis can be calculated using the average ratio for active agent AUC/TAA AUC at a time point of maximal drug release. A general method can include using a lyophilized, purified peptide-drug conjugates reconstituted in DMSO following production to generate stock solution at 20 mg/mL. Each conjugate stock can be brought to 0.25 mg/mL in each hydrolysis condition (1×DPBS, human plasma and rat plasma) in triplicate and rocked at 37° C. To quantitate free active agent, 100 μl of the hydrolyzed conjugate solution can be transferred into 1 mL acetonitrile at 4° C. at which time all plasma proteins and intact conjugates can precipitate. This can be performed repeatedly to generate a series of time points (0 hr, 0.5 hr, 1 hr, 2 hr, 4 hr, 6 hr, 8 hr, 24 hr, 32 hr). The acetonitrile solution can be spun at 17,000 g for 5 minutes, and the supernatant removed and added to a 96 well block. The pellet can then be resuspended in 500 μl acetonitrile and re-pelleted as before. The supernatant can be removed and added to the same well in the block. Samples can be prepared for analysis by drying under a nitrogen stream followed by reconstitution in 110 μl 45:55 ACN:Citrate 10 mM pH 5.5. To ensure optimal recovery the block can be shaken via plate shaker at 7,000 rpm for 5 minutes during the reconstitution step. Prior to LC/MS the samples can be transferred to a 96 well plate and centrifuged at 6,500 g for 15 minutes. Analysis can be performed on an Agilent 1260 Infinity series HPLC with inline 6120 single quad MS using acetonitrile, water (+0.1% TFA) gradient (shown below) on an InfinityLab Poroshell SB-C18 column. Quantification of free active agent (or drug) can be achieved through integration of active agent peaks of the TIC.
(§2) Lyophilized, purified peptide-drug conjugates were reconstituted in DMSO following production to generate stock solution at 20 mg/mL. Each conjugate stock was brought to 0.25 mg/mL in each hydrolysis condition (1×DPBS, human plasma and rat plasma) in triplicate and rocked at 37° C.
(§3) To quantitate free dexamethasone (Dex), 100 μl of the hydrolyzed conjugate solution was transferred into 1 mL acetonitrile at 4° C. at which time all plasma proteins and intact conjugates precipitated. This was performed repeatedly to generate a series of time points (0 hr, 0.5 hr, 1 hr, 2 hr, 4 hr, 6 hr, 8 hr, 24 hr, 32 hr). The corticosteroid triamcinolone acetonide (25 μl, 0.1 mg/mL in 45:55 ACN:Citrate 10 mM pH 5.5) was supplemented into the acetonitrile solution as an internal standard. The acetonitrile solution was spun at 17,000 g for 5 minutes, and the supernatant removed and added to a 96 well block. The pellet was resuspended in 500 μl acetonitrile and re-pelleted as before. The supernatant was removed and added to the same well in the block.
Samples were prepared for analysis by drying under a nitrogen stream followed by reconstitution in 110 μl 45:55 ACN:Citrate 10 mM pH 5.5. To ensure optimal recovery the block was shaken via plate shaker at 7,000 rpm for 5 minutes during the reconstitution step. […]

[2] = Hydrolysis assay of peptide-drug conjugates in human plasma (free Dex by LC/MS); type: in vitro ADME; conditions: 37° C., release of free Dex, time points to 32 hr, read-out: Half-life (hours) as measured in the hydrolysis experiments (converted)
Experimental: as §1, with “To ensure optimal recovery the block can be shaken via plate shaker at 7,000 rpm for 5 minutes during the reconstitution step. Prior to LC/MS the samples can be transferred to a 96 well plate and centrifuged at 6,500 g for 15 minutes. Analysis can be performed on an Agilent 1260 Infinity series HPLC with inline 6120 single quad MS using acetonitrile, water (+0.1% TFA) gradient (shown below) on an InfinityLab Poroshell SB-C18 column.” left out, “TIC. […]” for “TIC.”
To quantitate free dexamethasone (Dex), 100 μl of the hydrolyzed conjugate solution was transferred into 1 mL acetonitrile at 4° C. at which time all plasma proteins and intact conjugates precipitated. […]

[3] = Hydrolysis assay of peptide-drug conjugates in PBS (free Dex by LC/MS); type: physicochemical; conditions: 37° C.; for Hydrolysis half-life: in PBS, free Dex
Experimental: as §1, §2, §3
Samples were prepared for analysis by drying under a nitrogen stream followed by reconstitution in 110 μl 45:55 ACN:Citrate 10 mM pH 5.5. To ensure optimal recovery the block was shaken via plate shaker at 7,000 rpm for 5 minutes during the reconstitution step. Prior to LC/MS the samples were transferred to a 96 well plate and centrifuged at 6,500 g for 15 minutes. Analysis was performed on an Agilent 1260 Infinity series HPLC with inline 6120 single quad MS using a gradient of 0.1% TFA in acetonitrile (solvent B), and 0.1% TFA (aq) (solvent A) gradient (shown below) on an InfinityLab Poroshell SB-C18 column. […]

CIA rats = conditions: for ankle swelling over time as compared to vehicle: 0.2 mg/kg and 0.5 mg/kg Dex equivalents IV days 11 and 12; for spleen weight / thymus weight / total body weight: 0.2 mg/kg and 0.5 mg/kg dose; for change in median ankle diameter between day 11 and day 13 as compared to vehicle / difference from Dex in change in ankle diameter: 0.2 mg/kg dose; for reduction in thymus weight as compared to vehicle: 0.2 mg/kg dose groups
Experimental: Arthritis was induced in 9-week-old female Lewis rats (Envigo or Charles River Laboratories) by intradermal injection while anesthetized of 400 ug bovine type II collagen (Chondrex Inc, Redmond Wash.) in 2 adjacent 200 ul (1 mg/ml) doses on day 0. Collagen is prepared for injection by dissolving at 2 mg/ml in 0.01N glacial acetic acid in sterile water and rocking at 4° C. overnight then emulsifying in Freund's incomplete adjuvant (IFA, Sigma Aldrich). To emulsify, equal volumes of collagen solution and IFA are drawn up into separate syringes, which are joined by a 3-way stopcock. While on ice, the collagen and IFA are mixed by pressing between the two syringes rapidly for 10 minutes. Quality of the emulsification is tested after 10 minutes of mixing by dropping a small amount of mixture in water. A properly emulsified solution will remain as a discrete droplet and not disperse in the water. On day 7, rats are challenged with a second intradermal injection of 100 ug of collagen in 100 ul, 1 mg/ml, collagen in IFA solution prepared fresh. Body weight and ankle diameter measurements are recorded daily from day 7 through the end of the study. Ankle diameter was measure by a single researcher using a Fowler Digitrix 2 micrometer. Three measurements of each ankle were taken of the lateral dimension at the tarsus of lightly anesthetized rats. The reported ankle diameter measurement is the mean of the three measurements.
Arthritis was induced as described in four cohorts of 9-week-old female Lewis rats. Rats were randomly placed in treatment groups, balancing compound and dose groups across cohorts. […] Rats were dosed by tail vein injection on days 11 and 12 and euthanized on day 13 by CO2 asphyxiation. Immediately after cessation of respiratory movement, blood was collected by cardiac puncture, synovial fluid was collected from both knees, one hind limb was fixed in formalin and the alternate ankle was frozen on dry ice. Thymus, spleen, liver, and kidney weights were recorded.
CIA Response study design.
The aim of the study was to test the 4 conjugates with various linkers at two different doses in vivo in CIA rats to assess the following: ability to deliver sufficient dexamethasone to the joint to show functionality and potential therapeutic effect in the disease model.
CIA was induced in female Lewis rats (as described above, see EXAMPLE 21). Body weight and ankle joint diameters were measured on day 0 and then daily from day 7 until euthanasia. […] At euthanasia, synovial fluid was collected from both knees, one hind limb was fixed in formalin and the alternate ankle was frozen on dry ice. Thymus, spleen, liver, and kidney weights were recorded. Blood samples were submitted for CBC/Chemistry analysis, and the remaining plasma was frozen.

[4] = Rat Plasma, release of free Dex, time points to 32 hr, read-out: Half-life (hours) as measured in the hydrolysis experiments (converted)
[5] = in rat plasma, free Dex, read-out: Hydrolysis half-life (converted)

SMILES | half-life at 0.25 mg/mL [1, 4] [h] | half-life at 0.25 mg/mL [1, 5] [h] | half-life at 0.25 mg/mL [2] [h] | half-life at 0.25 mg/mL ([3]; PBS, release of free Dex, time points to 32 hr, read-out: Half-life (hours) as measured in the hydrolysis experiments (converted)) [h] | Hydrolysis half-life [3] | ankle swelling over time as compared to vehicle (CIA rats) | spleen weight (CIA rats) | thymus weight (CIA rats) | total body weight (CIA rats) | change in median ankle diameter between day 11 and day 13 as compared to vehicle (CIA rats) | difference from Dex in change in ankle diameter (CIA rats) | reduction in thymus weight as compared to vehicle (CIA rats) | mortality and tolerability (CIA rats; 1 mg/kg Dex equivalents IV, some rats) | Half-life (hours) as measured in the hydrolysis experiments ([3]; PBS, release of free Dex, time points to 32 hr)
CC[C@H](C)[C@@H]1NC(=O)[C@@H]2CSSC[C@H](NC(=O)[C@H](CCCNC(=N)N)NC(=O)[C@@H](NC(=O)[C@H](CC(N)=O)NC(=O)[C@@H](NC(=O)[C@@H]3CCCN3C(=O)[C@@H](NC(=O)CNC(=O)[C@H](CO)NC(=O)CNC(=O)CCCC(=O)OCC(=O)[C@@]3(O)[C@H](C)C[C@H]4[C@@H]5CCC6=CC(=O)C=C[C@]6(C)[C@@]5(F)[C@@H](O)C[C@@]43C)C(C)C)[C@@H](C)CC)C(C)C)C(=O)N[C@@H](CCCNC(=N)N)C(=O)NCC(=O)N[C@@H](CO)C(=O)N[C@@H](CCCNC(=N)N)C(=O)N[C@@H](CC(=O)O)C(=O)N[C@H]3CSSC[C@H](NC(=O)[C@H](CCCNC(=N)N)NC(=O)[C@H](CO)NC(=O)[C@H](CC(N)=O)NC1=O)C(=O)N[C@@H](Cc1c[nH]cn1)C(=O)N[C@H](C(=O)N[C@H](C(=O)N1CCC[C@H]1C(=O)O)[C@@H](C)O)CSSC[C@H](NC(=O)[C@@H]1CCCN1C(=O)[C@H](CC(=O)O)NC(=O)[C@H](CC(C)C)NC3=O)C(=O)N[C@@H](CCCNC(=N)N)C(=O)N[C@@H](CCCNC(=N)N)C(=O)N[C@@H](C)C(=O)NCC(=O)N[C@@H](CCSC)C(=O)N[C@@H](CCCNC(=N)N)C(=O)N[C@@H](Cc1ccccc1)C(=O)NCC(=O)N[C@@H](CCCNC(=N)N)C(=O)N2 [Compound 23, Peptide(SEQ ID NO: 105)-glutaric acid-Dex] (X3-GSGVPINVRCRGSRDCLDPCRRAGMRFGRCINSRCHCTP-OH; disulfide 10-30, 16-35, 20-37 (inferred); C-terminus assumed) | 1.9 | 1.9 | 1.7 | 6 | 6 h | reduction in ankle swelling | reduction | reduction | reduction | statistically significant reduction in ankle diameter | no statistically significant difference | statistically significant | died overnight | 
CC[C@H](C)[C@@H]1NC(=O)[C@@H]2CSSC[C@H](NC(=O)[C@H](CCCNC(=N)N)NC(=O)[C@@H](NC(=O)[C@H](CC(N)=O)NC(=O)[C@@H](NC(=O)[C@@H]3CCCN3C(=O)[C@@H](NC(=O)CNC(=O)[C@H](CO)NC(=O)CNC(=O)[C@H]3CC[C@H](C(=O)OCC(=O)[C@@]4(O)[C@H](C)C[C@H]5[C@@H]6CCC7=CC(=O)C=C[C@]7(C)[C@@]6(F)[C@@H](O)C[C@@]54C)CC3)C(C)C)[C@@H](C)CC)C(C)C)C(=O)N[C@@H](CCCNC(=N)N)C(=O)NCC(=O)N[C@@H](CO)C(=O)N[C@@H](CCCNC(=N)N)C(=O)N[C@@H](CC(=O)O)C(=O)N[C@H]3CSSC[C@H](NC(=O)[C@H](CCCNC(=N)N)NC(=O)[C@H](CO)NC(=O)[C@H](CC(N)=O)NC1=O)C(=O)N[C@@H](Cc1c[nH]cn1)C(=O)N[C@H](C(=O)N[C@H](C(=O)N1CCC[C@H]1C(=O)O)[C@@H](C)O)CSSC[C@H](NC(=O)[C@@H]1CCCN1C(=O)[C@H](CC(=O)O)NC(=O)[C@H](CC(C)C)NC3=O)C(=O)N[C@@H](CCCNC(=N)N)C(=O)N[C@@H](CCCNC(=N)N)C(=O)N[C@@H](C)C(=O)NCC(=O)N[C@@H](CCSC)C(=O)N[C@@H](CCCNC(=N)N)C(=O)N[C@@H](Cc1ccccc1)C(=O)NCC(=O)N[C@@H](CCCNC(=N)N)C(=O)N2 [Compound 25, Peptide(SEQ ID NO: 105)-trans-1,4-cyclohexyl-Dex] (X4-GSGVPINVRCRGSRDCLDPCRRAGMRFGRCINSRCHCTP-OH; disulfide 10-30, 16-35, 20-37 (inferred); C-terminus assumed) | 3.4 | 3.4 | 21.3 |  | No Dex release ≤32 h | reduction in ankle swelling | reduction | reduction | reduction | statistically significant reduction in ankle diameter | no statistically significant difference | statistically significant |  | undetectable ≤32

— patent US20210252159A1, “CONJUGATES OF CARTILAGE-HOMING PEPTIDES” (priority 2018, published 2021)
